Laboratory results reported in publication PMC10522637.

target: human Toll-like receptor 5 (3xFlag-hTLR5) (human) (UniProt O60602)
Sequence of UniProt O60602 (O60602 21-858): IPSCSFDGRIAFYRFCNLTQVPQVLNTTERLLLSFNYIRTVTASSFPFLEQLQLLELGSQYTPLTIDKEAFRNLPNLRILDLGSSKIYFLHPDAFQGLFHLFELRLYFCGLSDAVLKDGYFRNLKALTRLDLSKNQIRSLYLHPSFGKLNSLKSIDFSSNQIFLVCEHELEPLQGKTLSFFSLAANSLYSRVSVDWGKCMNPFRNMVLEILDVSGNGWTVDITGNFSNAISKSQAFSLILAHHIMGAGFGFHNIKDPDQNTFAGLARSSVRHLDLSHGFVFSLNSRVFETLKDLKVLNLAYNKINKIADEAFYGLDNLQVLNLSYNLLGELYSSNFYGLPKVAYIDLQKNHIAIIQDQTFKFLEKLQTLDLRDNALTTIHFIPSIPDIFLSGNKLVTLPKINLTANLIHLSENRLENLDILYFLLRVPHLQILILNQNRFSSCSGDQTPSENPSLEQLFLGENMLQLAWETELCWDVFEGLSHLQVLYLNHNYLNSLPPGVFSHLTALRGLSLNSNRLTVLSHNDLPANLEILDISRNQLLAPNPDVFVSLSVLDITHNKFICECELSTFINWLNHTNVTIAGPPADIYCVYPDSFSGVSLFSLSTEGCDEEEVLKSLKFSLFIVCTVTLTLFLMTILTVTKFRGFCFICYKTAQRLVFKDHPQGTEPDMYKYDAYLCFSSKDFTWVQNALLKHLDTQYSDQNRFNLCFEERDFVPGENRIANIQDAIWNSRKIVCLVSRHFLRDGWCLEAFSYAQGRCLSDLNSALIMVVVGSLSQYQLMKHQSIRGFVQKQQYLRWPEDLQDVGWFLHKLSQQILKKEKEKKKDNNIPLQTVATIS

Row | Substance | EC50 of TLR5-dependent NF-κB stimulating activity, HEK-Blue hTLR5 reporter cells [nM]
1 | PNGase F-treated (deglycosylated) eFlaB (natural protein) | 3.88
2 | eukaryotic-expressed Vibrio vulnificus FlaB (eFlaB) (natural protein) | 13.8
3 | prokaryotic-expressed Vibrio vulnificus FlaB (pFlaB) (natural protein) | 3.32
